Experiment: Immunisation of mice with rHev b 6, serum ELISA
Format: in vivo, BALB/c mice
Settings: eight mice; 20 μg intraperitoneally
Experimental: Monoclonal antibody production followed established protocols (Sutherland et al, 2002, supr; Goding, J. Monoclonal Antibodies: principles and practice 3rd ed. London: Academic Press. 492, 1996). Approval was obtained from the Monash University Animal Ethics Committee. Eight BALB/c mice were immunised with 20 μg rHev b 6 in 100 ill of PBS, intraperitoneally, three times at three weekly intervals. The first injection was given with Complete Freund's Adjuvant (100 μl; Sigma) and the two subsequent injections with Incomplete Freund's Adjuvant (100 μl; Sigma). Mice were finally boosted with 20 μg rHev b 6 in 200 μl PBS intraperitoneally 3 days before being sacrificed. Hybridomas were generated by fusing immune mouse spleen cells with murine myeloma cells (line X-63.Ag8.653; 17) and supernatants were screened for antibody to rHev b 6 and glove extract by performing a duplicate ELISA as described below. Positive hybridomas were expanded and cloned by limiting dilution.

B1: rHev b 6: recombinant Hev b 6 (prohevein) expressed in E. coli from pPROEX-HTa with 6-His tag (protein)
chain: EQCGRQAGGKLCPNNLCCSQWGWCGSTDEYCSPDHNCQSNCKDSGEGVGGGSASNVLATYHLYNSQDHGWDLNAASAYCSTWDANKPYSWRSKYGWTAFCGPVGAHGQSSCGKCLSVTNTGTGAKTTVRIVDQCSNGGLDLDVNVFRQLDTDGKGYERGHITVNYQFVDCGDSFNPLFSVMKSSVIN
modifications: left off: small tags and cut ends
notes: recombinant Hev b 6 (prohevein) expressed in E. coli from pPROEX-HTa with 6-His tag
- number of immunised mice whose serum reacted with glove extract by ELISA: seven
- number of immunised mice with strong polyclonal immune response to rHev b 6: eight

— patent US20060233785A1, “Immunointeractive molecules and uses thereof” (priority 2001, published 2006)
